Data on 18 molecules can be found in publication PMC11025564 (The journal of physical chemistry. B, 2018).

Where a chain is given by its changes, count along the chain named. Names and notes keep the numbering of the source.

The labels stand for the following.
T1: integrin β3(P685-F727) TM peptide C687S W715I (human, UniProt P05106 711-753, C687S | W715I)
T1 chain (looked up): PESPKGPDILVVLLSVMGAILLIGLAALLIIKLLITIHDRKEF

T2: human integrin β3(P685-F727) TM peptide incorporating β3(C687S) (human, UniProt P05106 711-753, C687S)
T2 chain (looked up): T1 chain (looked up) with I31W

T3: integrin β3(P685-F727) TM peptide C687S W715A (human, UniProt P05106 711-753, C687S | W715A)
T3 chain (looked up): T1 chain (looked up) with I31A

T4: integrin β3(P685-F727) TM peptide C687S W715Y (human, UniProt P05106 711-753, C687S | W715Y)
T4 chain (looked up): T1 chain (looked up) with I31Y

T5: integrin β3(P685-F727) TM peptide C687S W715F (human, UniProt P05106 711-753, C687S | W715F)
T5 chain (looked up): T1 chain (looked up) with I31F

T6: integrin β3(P685-F727) TM peptide C687S W715H (human, UniProt P05106 711-753, C687S | W715H)
T6 chain (looked up): T1 chain (looked up) with I31H

B1: integrin αIIb(A958-P998) TM peptide W988H/W967V (peptide, UniProt P08514 989-1029, looked up)
chain: ALEERAIPIVWVLVGVLGGLLLLTILVLAMHKVGFFKRNRP
B2: integrin αIIb(A958-P998) TM peptide W967V/W968V/W988H (peptide, UniProt P08514 989-1029, looked up)
chain: B1 chain with W11V
B3: human integrin αIIb(A958-P998) TM peptide (peptide)
chain: not shown
B4: integrin αIIb(A958-P998) TM peptide W967F/W968V (peptide, UniProt P08514 989-1029, looked up)
chain: B1 chain with V10F, W11V, H31W
B5: integrin αIIb(A958-P998) TM peptide W968V (peptide, UniProt P08514 989-1029, looked up)
chain: B1 chain with V10W, W11V, H31W
B6: integrin αIIb(A958-P998) TM peptide W967Y (peptide)
chain: not shown
B7: integrin αIIb(A958-P998) TM peptide W967Y/W968V (peptide, UniProt P08514 989-1029, looked up)
chain: B1 chain with V10Y, W11V, H31W
B8: integrin αIIb(A958-P998) TM peptide W967V (peptide)
chain: not shown
B9: integrin αIIb(A958-P998) TM peptide W988V (peptide, UniProt P08514 989-1029, looked up)
chain: B1 chain with V10W, H31V
B10: integrin αIIb(A958-P998) TM peptide W967H/W968V (peptide, UniProt P08514 989-1029, looked up)
chain: B1 chain with V10H, W11V, H31W
B11: integrin αIIb(A958-P998) TM peptide W967A/W968V (peptide, UniProt P08514 989-1029, looked up)
chain: B1 chain with V10A, W11V, H31W
B12: integrin αIIb(A958-P998) TM peptide W988H (peptide, UniProt P08514 989-1029, looked up)
chain: B1 chain with V10W
B13: integrin αIIb(A958-P998) TM peptide W988F (peptide, UniProt P08514 989-1029, looked up)
chain: B1 chain with V10W, H31F
B14: integrin αIIb(A958-P998) TM peptide W988A (peptide, UniProt P08514 989-1029, looked up)
chain: B1 chain with V10W, H31A
B15: integrin αIIb(A958-P998) TM peptide W988Y (peptide, UniProt P08514 989-1029, looked up)
chain: B1 chain with V10W, H31Y
B16: integrin αIIb(A958-P998) TM peptide W967F (peptide)
chain: not shown
B17: integrin αIIb(A958-P998) TM peptide W967H (peptide)
chain: not shown
B18: integrin αIIb(A958-P998) TM peptide W967V/W968V (peptide, UniProt P08514 989-1029, looked up)
chain: B1 chain with W11V, H31W

The first experiment concerns the target T1, integrin β3(P685-F727) TM peptide C687S …. The experiment can be described thus: intrinsic tryptophan fluorescence emission.
On to B1, for which the binding result is “binds”.

The next experiment concerns the target T2, human integrin β3(P685-F727) TM peptide …. The experiment can be described thus: intrinsic tryptophan fluorescence emission.
Turning to B2, the binding result is “binds”.

Another experiment deals with T1, integrin β3(P685-F727) TM peptide C687S …. The experiment can be described thus: ITC. (In general: ITC needs no label: the signal is the heat of the interaction.)
For the molecule B3, the “KXY (association equilibrium constant on the mole fraction scale)” value came to 2600 ± 70 and the dH is -9.6 ± 0.1 kcal/mol.

For a further experiment, the target named is T3, integrin β3(P685-F727) TM peptide C687S …. The experiment in a line: ITC.
As to B3, the “KXY (association equilibrium constant on the mole fraction scale)” value came to 1300 ± 40 and the dH was -15.5 ± 0.3 kcal/mol.

A further experiment concerns the target T4, integrin β3(P685-F727) TM peptide C687S …. The experiment can be described thus: ITC.
Turning to B3, the “KXY (association equilibrium constant on the mole fraction scale)” value worked out at 1320 ± 40 and the dH is -14.2 ± 0.2 kcal/mol.

A further experiment deals with T2, human integrin β3(P685-F727) TM peptide …. The experiment can be described thus: ITC.
For B3, the “KXY (association equilibrium constant on the mole fraction scale)” value worked out at 3250 ± 60 and the dH was -16 ± 0.1 kcal/mol.
The matching figures for B4: 6500 ± 200 and -15.7 ± 0.2 kcal/mol.
For B5, the “KXY (association equilibrium constant on the mole fraction scale)” value was determined as 13200 ± 600 and the dH was -14.3 ± 0.2 kcal/mol.
The matching figures for B6: 4700 ± 100 and -13.7 ± 0.2 kcal/mol.
As to B7, the “KXY (association equilibrium constant on the mole fraction scale)” value is 9800 ± 400 and the dH is -14 ± 0.2 kcal/mol.
For the molecule B8, the “KXY (association equilibrium constant on the mole fraction scale)” value came out at 4450 ± 80 and the dH was -13.1 ± 0.1 kcal/mol.
Take B9: the “KXY (association equilibrium constant on the mole fraction scale)” value was 2900 ± 100 and the dH was -13.7 ± 0.2 kcal/mol.
B10: the “KXY (association equilibrium constant on the mole fraction scale)” value stood at 7000 ± 200 and the dH is -14.9 ± 0.2 kcal/mol.
B11: the “KXY (association equilibrium constant on the mole fraction scale)” value was 6400 ± 200 and the dH was -18.4 ± 0.2 kcal/mol.
Regarding B12, the “KXY (association equilibrium constant on the mole fraction scale)” value turned out to be 3540 ± 40 and the dH is -16.4 ± 0.1 kcal/mol.
Consider B13, for which the “KXY (association equilibrium constant on the mole fraction scale)” value turned out to be 1000 ± 20 and the dH is -16.4 ± 0.2 kcal/mol.
In the case of B14, the “KXY (association equilibrium constant on the mole fraction scale)” value worked out at 3320 ± 70 and the dH is -17.3 ± 0.1 kcal/mol.
In the case of B15, the “KXY (association equilibrium constant on the mole fraction scale)” value turned out to be 2320 ± 50 and the dH was -19.2 ± 0.2 kcal/mol.
The matching figures for B16: 4030 ± 90 and -12.6 ± 0.1 kcal/mol.
The matching figures for B17: 2530 ± 50 and -15.4 ± 0.1 kcal/mol.
The matching figures for B18: 2680 ± 60 and -17.8 ± 0.2 kcal/mol.

The target in a further experiment is T5, integrin β3(P685-F727) TM peptide C687S …. The experiment in a line: ITC.
Regarding B3, the “KXY (association equilibrium constant on the mole fraction scale)” value amounted to 2230 ± 50 and the dH is -17.2 ± 0.2 kcal/mol.

In the next experiment the target is T6, integrin β3(P685-F727) TM peptide C687S …. The experiment in a line: ITC.
On to B3, for which the “KXY (association equilibrium constant on the mole fraction scale)” value amounted to 820 ± 40 and the dH is -8.7 ± 0.2 kcal/mol.
